Results taken from the supplement of paper PMC10724198.
± gives the standard deviation of the averaged measurements.

System: Saccharomyces cerevisiae
Assay: protein stability index of tFT-peptide fusion (C-terminal peptide) (PSI (0-1 scale)); higher = more stable (slower turnover)
Conditions: genetic background: wild type; temperature: 30 C
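Further: PSI is a weighted mean of sequencing reads over stability bins, variants kept only with over 10 reads, mCherry proximal and sfGFP distal, peptide attached via GGGS linker.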

Sequence	protein stability index
LRIILPPLAQPE	0.639 ± 0.019
LRKNRKHINKKI	0.626 ± 0.034
LRLATTLFPLSF	0.797 ± 0.12
LRLECESIKRYT	0.61 ± 0.055
LRLPAPPLASAC	0.596 ± 0.006
LRMHFPPHPSSL	0.691 ± 0.067
LRNGSFFLVFSC	0.531 ± 0.016
LRPPLRPRPIPL	0.6983 ± 0.0036
LRPPPPRGPSPP	0.689 ± 0.023
LRPRPPTLPPSR	0.638 ± 0.04
LRRAPPSPPPPP	0.716 ± 0.054
LRRGRLVSSAAF	0.802 ± 0.077
LRRTKWRTLQAP	0.701 ± 0.048
LRSGGVPVFWGS	0.721 ± 0.043
LRSPHPLPPPPP	0.732 ± 0.062
LRSPPPVSHRLP	0.822 ± 0.048
LRSRVGYVMPVR	0.5988 ± 0.0057
LRVKVPLLGLWA	0.557 ± 0.025
LRYENSQRKELR	0.653 ± 0.055
LSAEAGAGLRAM	0.684 ± 0.034
LSALPPRPFSYR	0.7053 ± 0.004
LSAPPPPPPPSP	0.7026 ± 0.003
LSATWLKAIVYW	0.578 ± 0.012
LSETTAYLQQAS	0.693 ± 0.1
LSFDAVSVGFGG	0.691 ± 0.064
LSGSRAFVTVVL	0.644 ± 0.034

Sequence	protein stability index
LSGSTQLLYFFQ	0.6651 ± 0.0028
LSGTGTIIKARA	0.67 ± 0.14
LSGVYPQACSRL	0.734 ± 0.014
LSHMRVSLTRPR	0.707 ± 0.029
LSHSHLYLFFHH	0.6957 ± 0.0027
LSIPPSLLSLPL	0.702 ± 0.025
LSLALGSPGALP	0.703 ± 0.07
LSLCVVFRAPSR	0.686 ± 0.042
LSLLLLPPFPHF	0.758 ± 0.026
LSLLPPPPPPSP	0.688 ± 0.011
LSLRGRLNYRMM	0.647 ± 0.011
LSLSPLHRSSFR	0.6954 ± 0.0056
LSPGSSPAVSGF	0.722 ± 0.13
LSPGTPVSAPRL	0.655 ± 0.029
LSPLSHPPSPAP	0.6806 ± 0.0014
LSPLSVPAPPSP	0.655 ± 0.027
LSPPLSLPPASP	0.731 ± 0.032
LSPPPRPPLAPP	0.65 ± 0.039
LSPPPSLSSRPP	0.706 ± 0.064
LSPPRSPPSRPP	0.645 ± 0.029
LSPQKRDSAVTR	0.638 ± 0.095
LSPRSSGCPRWF	0.677 ± 0.019
LSPTQSTLPTPP	0.673 ± 0.01
LSQASPGSPRPA	0.698 ± 0.011
LSRLLVYSRGIV	0.629 ± 0.093
LSRPTSWLLSFL	0.777 ± 0.12

Sequence	protein stability index
LSSARPMNLPPG	0.67 ± 0.057
LSSGLLIFPIVF	0.631 ± 0.031
LSSHLHCVTLFT	0.606 ± 0.059
LSSPCAFTCPLL	0.7139 ± 0.0062
LSSPPAPPPPPR	0.677 ± 0.13
LSTPWADPTSSP	0.716 ± 0.096
LSTSINTIIPGP	0.71 ± 0.14
LSVFAFRGVFRF	0.638 ± 0.045
LSVFCALPFVAL	0.7026 ± 0.0048
LSVSLCWRHFFS	0.693 ± 0.012
LTCRASNGIQAA	0.677 ± 0.021
LTGCFRSSRRCC	0.665 ± 0.02
LTGTVQPKLILP	0.722 ± 0.051
LTLGAIRLLLRC	0.496 ± 0.037
LTLGSSGTSFLS	0.698 ± 0.016
LTLPPACFPRLR	0.723 ± 0.059
LTLQIWNLVSHL	0.599 ± 0.071
LTNLGSDRCRLQ	0.623 ± 0.0074
LTSWYGNKLVAV	0.588 ± 0.029
LTVIRSRDVIGP	0.641 ± 0.055
LTVPCSSSFPLL	0.647 ± 0.095
LTWRVDECPPYS	0.712 ± 0.038
LVCKRQGQANFI	0.689 ± 0.06
LVCPFFLSSRIF	0.653 ± 0.025
LVDAGGSTRGKP	0.643 ± 0.0069
LVFGGRMRVYRP	0.678 ± 0.016

Sequence	protein stability index
LVFGLGSVYLWG	0.602 ± 0.059
LVFTDDGGVRSL	0.609 ± 0.03
LVGFGGGGHGVV	0.696 ± 0.019
LVGPPDPAHAVH	0.718 ± 0.031
LVGTYTPRFTPC	0.643 ± 0.1
LVHRGRRGSNIE	0.7537 ± 0.0011
LVLPTSRPRCFI	0.661 ± 0.027
LVQTREKIELVS	0.643 ± 0.027
LVQVGDKRFNRL	0.651 ± 0.01
LVRAWRGGVGGV	0.669 ± 0.0098
LVRCDSSSPLPP	0.6863 ± 0.0042
LVRGKGGRGIEG	0.698 ± 0.074
LVRMCLFNMHFS	0.698 ± 0.018
LVRNGLCCTSRQ	0.704 ± 0.029
LVSACIRFPPSH	0.716 ± 0.079
LVSFLFAPLPLS	0.704 ± 0.038
LVSLGLHAGKRI	0.70514 ± 0.0004
LVVCWGCGLGVL	0.71 ± 0.033
LVVSPPPLPFPS	0.689 ± 0.013
LWAQRASPPWYQ	0.606 ± 0.047
LWCPLLTSFPSY	0.726 ± 0.078
LWFWAVECGLGG	0.713 ± 0.32
LWGGGGAGYWVG	0.732 ± 0.035
LWGYFRTAASFV	0.645 ± 0.095
LWLLVAPGPPAQ	0.682 ± 0.027
LWSYFLGLHPSD	0.773 ± 0.038

Sequence	protein stability index
LWVESRFVQTFL	0.6663 ± 0.0013
LYKSEGVYTGFW	0.729 ± 0.12
LYLKKIQQGIIK	0.69 ± 0.039
LYPEELQATAVY	0.5892 ± 0.00086
LYPTISCSARDG	0.699 ± 0.013
LYSNVLAAVMTG	0.623 ± 0.043
MAARGTEQGTMP	0.71 ± 0.061
MACCGVFISHKT	0.615 ± 0.026
MAEGRARLWGPS	0.701 ± 0.024
MARIASAQTSLT	0.688 ± 0.016
MESAGVGRVVWR	0.654 ± 0.051
MGACGGRVGKFG	0.662 ± 0.035
MGAVGGLCGMWA	0.711 ± 0.029
MGCDGSMAPRSL	0.6608 ± 0.0029
MGFRSVRGWVSL	0.699 ± 0.093
MGGVEMSNRIWE	0.663 ± 0.009
MGHKDDRGFADR	0.657 ± 0.013
MGIVEGIGASSL	0.662 ± 0.036
MGKSLCLFTQPI	0.668 ± 0.09
MGMSAGCGGWSG	0.6867 ± 0.0055
MHATWTLRRHGH	0.523 ± 0.04
MIASRVSYDMSY	0.608 ± 0.043
MICGCLWGSEGR	0.627 ± 0.11
MIRVRGRQKIEG	0.724 ± 0.13
MKTNFLDVKILM	0.7186 ± 0.0059
MLGLHSDTRRSR	0.673 ± 0.022

Sequence	protein stability index
MMEQLCCRRRLF	0.496 ± 0.041
MMMRKAPTARVS	0.637 ± 0.024
MNHHSDCLLRLW	0.648 ± 0.0084
MNNYWKNSTKIK	0.737 ± 0.025
MNRTDPSRDEKP	0.804 ± 0.094
MNSDQSGQGLTV	0.711 ± 0.011
MPKVIIGMSVTK	0.687 ± 0.015
MPNQTEARRKWV	0.633 ± 0.044
MQLPSHFEAWTS	0.781 ± 0.03
MRIKKQNIRNDT	0.615 ± 0.063
MRPSLIKVFLTR	0.632 ± 0.04
MRRSSKPRLSLT	0.725 ± 0.049
MSRPSLARLPAS	0.711 ± 0.011
MTESLIGCLSGD	0.7 ± 0.0074
MTIMPSPLGVVH	0.514 ± 0.055
MTLSCGVGLTVG	0.6521 ± 0.0009
MVGAWCAGIPGI	0.668 ± 0.0022
MVMEGLRTLSCQ	0.6589 ± 0.0061
MVRRDGMTVSLG	0.719 ± 0.028
MVTWSDRVIKSW	0.733 ± 0.023
MVVGWGGVEPVG	0.758 ± 0.048
MWVCGFVGGGGG	0.654 ± 0.035
NAHHSASPSHCF	0.6471 ± 0.0059
NALGRPSAFILT	0.695 ± 0.057
NAVSFVKGRLVY	0.657 ± 0.028
NCSSNNRQSENI	0.644 ± 0.017

Sequence	protein stability index
NDNNSRSGRRIF	0.66 ± 0.019
NDRLDRRDWWEG	0.695 ± 0.022
NELRTFLGDRDI	0.675 ± 0.043
NEPNIRDRSIFS	0.688 ± 0.015
NEQPSKLLAKEC	0.866 ± 0.13
NFRTHRHLVARS	0.762 ± 0.019
NGISQWMGIGGQ	0.667 ± 0.011
NGRNKKRKCLQT	0.706 ± 0.086
NGSIENIAKRKK	0.639 ± 0.077
NGTGGASSLAFG	0.689 ± 0.052
NGTGGVSSLAFG	0.6399 ± 0.0013
NHRANKIRKCKD	0.6298 ± 0.0016
NIAGHLHQPVQM	0.712 ± 0.029
NIGVKNVVLVEG	0.537 ± 0.043
NIRLRRKIIINK	0.562 ± 0.088
NKEIKKIRIKKE	0.664 ± 0.076
NKIRIIQVNLNR	0.699 ± 0.17
NKKIEDYDKNKN	0.6835 ± 0.00098
NKKKGYRKKQNH	0.567 ± 0.032
NKKKKETKNAQQ	0.698 ± 0.013
NKKKNKKIRQEK	0.685 ± 0.017
NKNKENMKRKTK	0.682 ± 0.039
NKNKKKIKHKRK	0.669 ± 0.051
NKQNKEIQPKRK	0.653 ± 0.021
NKQTAEIGRGSC	0.651 ± 0.03
NKRCRNITIQRA	0.73379 ± 0.00047

Sequence	protein stability index
NKRLKNKIKRIK	0.651 ± 0.037
NLPLVDIIPISN	0.828 ± 0.025
NNSLPTDVDKYL	0.683 ± 0.019
NPYKREKKKNKK	0.787 ± 0.14
NQKEIKYTLKYI	0.684 ± 0.018
NQVNEELDKKGH	0.719 ± 0.14
NRQDASAPVCLL	0.719 ± 0.049
NRRPLVQNGKLF	0.67849 ± 0.00026
NRVRVNSSYGRD	0.71 ± 0.018
NSGSRGTRVVGL	0.705 ± 0.084
NSKGKKFKCLKK	0.766 ± 0.0099
NSSEIGQNADTA	0.672 ± 0.025
NTRKIEAVGSER	0.658 ± 0.024
NTTKLEKRGNIE	0.574 ± 0.084
NVGEWGTAVMSR	0.684 ± 0.034
NVLIASGIEVKK	0.629 ± 0.0099
NVTIRVAIRYHE	0.575 ± 0.021
NVWGTGGMCTFV	0.7058 ± 0.0019
NWRAAGQSGPES	0.67 ± 0.012
NYKVRKQKVDRN	0.674 ± 0.062
